From the supplement of paper PMC11136658

System: peptide library, one residue held at a place counted from the Y acceptor
Assay: relative phosphorylation of the sub-library (ratio to the mean residue at this position); higher = residue favoured
In short: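 In 384-well plates, purified recombinant kinases were incubated for 90 min with 50 μM ATP containing γ-32P-ATP and biotinylated Tyr-centred peptide libraries, each mixture fixing one residue at a single position between −5 and +5. After capture on streptavidin membranes and rinsing, peptides were quantified by phosphorimaging with ImageQuant. Per-position intensities were scaled to the sum of the 18 (Ser/Thr-free library: 16) randomized residues, then multiplied by that number.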

Sequence of TYK2, construct: aa871-end, human (P29597 871-1187, looked up): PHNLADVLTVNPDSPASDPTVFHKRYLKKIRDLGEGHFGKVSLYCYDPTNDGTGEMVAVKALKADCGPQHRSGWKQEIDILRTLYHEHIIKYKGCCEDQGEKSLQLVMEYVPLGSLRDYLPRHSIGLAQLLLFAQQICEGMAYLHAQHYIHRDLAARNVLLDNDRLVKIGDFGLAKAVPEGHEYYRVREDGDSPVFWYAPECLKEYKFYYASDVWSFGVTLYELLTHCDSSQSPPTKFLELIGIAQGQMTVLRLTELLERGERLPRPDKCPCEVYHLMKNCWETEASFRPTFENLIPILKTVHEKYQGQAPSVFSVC
Sequence of TNNI3K, construct: aa1-727, human (Q59H18 1-727, looked up): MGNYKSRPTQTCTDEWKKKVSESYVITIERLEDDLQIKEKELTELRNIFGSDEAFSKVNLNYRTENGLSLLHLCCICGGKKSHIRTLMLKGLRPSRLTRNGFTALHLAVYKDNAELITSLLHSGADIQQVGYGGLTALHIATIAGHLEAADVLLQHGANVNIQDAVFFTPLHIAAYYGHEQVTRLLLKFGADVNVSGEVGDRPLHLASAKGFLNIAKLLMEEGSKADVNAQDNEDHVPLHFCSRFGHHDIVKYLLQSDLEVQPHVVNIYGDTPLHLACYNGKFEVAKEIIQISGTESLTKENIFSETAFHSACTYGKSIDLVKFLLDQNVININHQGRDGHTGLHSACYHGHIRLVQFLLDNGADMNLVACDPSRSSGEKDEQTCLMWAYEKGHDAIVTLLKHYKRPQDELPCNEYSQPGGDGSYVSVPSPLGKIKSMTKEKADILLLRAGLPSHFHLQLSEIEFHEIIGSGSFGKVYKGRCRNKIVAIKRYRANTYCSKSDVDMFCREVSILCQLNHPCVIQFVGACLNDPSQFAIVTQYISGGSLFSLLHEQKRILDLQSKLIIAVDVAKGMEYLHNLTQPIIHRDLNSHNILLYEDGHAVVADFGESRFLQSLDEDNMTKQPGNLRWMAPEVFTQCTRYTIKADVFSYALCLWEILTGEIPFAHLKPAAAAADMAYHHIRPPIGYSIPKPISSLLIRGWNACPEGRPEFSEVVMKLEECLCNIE

TNNI3K, construct: aa1-727, human (from UniProt Q59H18)
relative phosphorylation
Conditions | at +1 | at +2 | at +3 | at +4 | at +5 | at -1 | at -2 | at -3 | at -4 | at -5
A fixed | 1.74 | 0.816 | 0.787 | 0.992 | 0.912 | 1.78 | 1.09 | 0.969 | 1.16 | 1.17
D fixed | 0.328 | 0.35 | 0.376 | 0.377 | 0.577 | 1.18 | 0.589 | 0.741 | 0.664 | 0.668
E fixed | 0.277 | 0.288 | 0.455 | 0.35 | 0.483 | 1.23 | 0.717 | 0.683 | 0.757 | 0.538
F fixed | 0.587 | 0.975 | 1.03 | 1.01 | 1.04 | 0.637 | 0.998 | 1.12 | 1.05 | 1.09
G fixed | 0.605 | 0.86 | 0.909 | 1.12 | 0.791 | 1.1 | 1.34 | 1.34 | 1.5 | 1.35
H fixed | 0.57 | 1.04 | 1.22 | 0.997 | 1.04 | 0.943 | 1.18 | 1.13 | 1.04 | 0.979
I fixed | 2.26 | 0.78 | 0.929 | 0.945 | 0.795 | 0.572 | 1.03 | 0.914 | 0.894 | 0.958
K fixed | 0.896 | 1.83 | 1.68 | 1.24 | 1.76 | 0.641 | 0.992 | 0.982 | 1.22 | 1.22
L fixed | 0.79 | 0.65 | 1.02 | 1.11 | 1.01 | 0.477 | 0.805 | 0.863 | 0.949 | 1.06
M fixed | 0.914 | 0.661 | 0.751 | 1.1 | 0.948 | 0.553 | 0.738 | 0.781 | 0.853 | 0.787
N fixed | 0.62 | 0.853 | 0.837 | 0.74 | 0.85 | 1.44 | 1.02 | 0.99 | 0.765 | 0.77
P fixed | 0.555 | 0.774 | 0.847 | 1.21 | 1.06 | 1.13 | 0.928 | 1.27 | 1.11 | 1.18
Q fixed | 0.746 | 0.978 | 1.13 | 0.952 | 0.861 | 1.24 | 1.05 | 0.815 | 0.925 | 0.808
R fixed | 1.23 | 2.79 | 2.39 | 1.73 | 1.98 | 0.687 | 1.4 | 1.07 | 1.25 | 1.21
V fixed | 2.88 | 0.736 | 0.835 | 0.979 | 0.83 | 0.701 | 0.996 | 1.05 | 0.947 | 0.98
W fixed | 0.784 | 1.39 | 0.892 | 1.27 | 1.08 | 0.579 | 1.11 | 1.37 | 1.27 | 1.46
pThr fixed | 0.215 | 0.234 | 0.259 | 0.263 | 0.44 | 0.253 | 0.593 | 0.715 | 0.515 | 0.622
pTyr fixed | 0.365 | 0.427 | 0.38 | 0.365 | 0.583 | 0.479 | 0.832 | 1.21 | 0.898 | 0.776

TYK2, construct: aa871-end, human (from UniProt P29597)
relative phosphorylation
Conditions | at +1 | at +2 | at +3 | at +4 | at +5 | at -1 | at -2 | at -3 | at -4 | at -5
A fixed | 1.02 | 0.925 | 0.773 | 0.912 | 0.996 | 1.11 | 0.912 | 0.961 | 1.1 | 1.01
D fixed | 0.279 | 0.572 | 0.536 | 0.798 | 0.795 | 1.27 | 0.902 | 0.975 | 0.881 | 0.949
E fixed | 0.484 | 0.712 | 0.473 | 0.923 | 0.803 | 0.995 | 0.977 | 0.946 | 1.27 | 0.869
F fixed | 1.45 | 1.04 | 1.17 | 1.05 | 1.02 | 1.24 | 0.932 | 1.02 | 1.18 | 1.04
G fixed | 0.642 | 0.869 | 0.853 | 1.05 | 1.1 | 1.1 | 1.14 | 1.04 | 1.24 | 1.21
H fixed | 1.3 | 0.828 | 1.07 | 1.15 | 1 | 1.22 | 1.09 | 1.04 | 0.906 | 0.96
I fixed | 1.79 | 0.873 | 1.69 | 0.909 | 0.957 | 1.05 | 1.06 | 0.9 | 1.1 | 0.983
K fixed | 0.544 | 1.29 | 0.806 | 1.24 | 1.1 | 0.573 | 0.956 | 0.959 | 0.86 | 0.995
L fixed | 1.58 | 0.927 | 1.27 | 0.899 | 1.02 | 1.05 | 1.07 | 1.01 | 1.04 | 1.08
M fixed | 1.59 | 1.02 | 1.33 | 1.17 | 0.983 | 0.976 | 0.858 | 0.983 | 0.967 | 0.959
N fixed | 0.565 | 1.22 | 0.988 | 0.981 | 0.979 | 0.98 | 1.2 | 1.2 | 0.925 | 1.09
P fixed | 0.381 | 1.04 | 0.756 | 0.756 | 1.22 | 1.18 | 0.892 | 1.17 | 1.1 | 1.09
Q fixed | 0.973 | 1.07 | 0.967 | 1.15 | 0.908 | 0.854 | 1 | 0.981 | 1.02 | 1.03
R fixed | 0.869 | 1.51 | 1.19 | 1.31 | 1.19 | 0.64 | 1.08 | 0.935 | 1.01 | 1.02
S fixed | 0.761 | 1.06 | 0.951 | 0.957 | 1.03 | 0.98 | 0.986 | 0.995 | 0.743 | 0.91
T fixed | 0.967 | 1.01 | 1.02 | 0.876 | 1.01 | 0.922 | 0.953 | 0.925 | 0.73 | 0.769
V fixed | 1.42 | 0.823 | 1.16 | 0.857 | 0.882 | 0.949 | 0.983 | 0.963 | 0.786 | 0.875
W fixed | 1.37 | 1.2 | 0.996 | 1.01 | 1 | 0.895 | 1.01 | 0.999 | 1.15 | 1.16
pThr fixed | 0.332 | 0.465 | 0.257 | 0.549 | 0.579 | 0.969 | 0.712 | 0.903 | 0.863 | 0.929
pTyr fixed | 1.02 | 0.822 | 0.517 | 0.919 | 0.694 | 1.51 | 0.98 | 1.1 | 1.22 | 1.07
